Paper PMC7019770
Residue numbers refer to the chain shown, from its start. Names may count otherwise.

Target: Mab2-5G2, monoclonal anti-idiotypic antibody recognizing an antibody that specifically interacts with PRRSV glycoprotein 5 (GP5)
Assay: ELISA
Conditions: chain shown with the change; Mab2-5G2 as plate-coating protein; anti-PRA rabbit serum for detection; parent: est. 1.6; read off a plot

B1: PRA, C-terminal domain of MYH9 (recombinant, wild type) K1673A (protein)
chain: MRELEDTRASREEILAQAKENEAKLKSMEAEMIQLQEELAAAERAKRQAQQERDELADEIANSSGKGALALEEKRRLEARIAQLEEELEEEQGNTELVNDRLKKANLQIDQINTDLNLERSHAQKNENARQQLERQNKELKVKLQEMEGTVKSKYKASIAALEAKIAQLEEQLDNETKERQAACKQVRRAEKKLKDVLLQVDDERRNAEQYKDQADKASTRLKQLKRQLEEAEEEAQRANASRRKLQRELEDATETADAMNREVSSLKNKLRRGDLPFVVPRRMGRKGAGDCSDEEVDGKADGAEAKAAE
response: 0.4 OD450

B2: PRA, C-terminal domain of MYH9 (recombinant, wild type) I1683A (protein)
chain: B1 chain with A23K, I33A
response: 0.61 OD450

B3: PRA, C-terminal domain of MYH9 (recombinant, wild type) E1679A (protein)
chain: B1 chain with A23K, E29A
response: 0.36 OD450

B4: PRA, C-terminal domain of MYH9 (recombinant, wild type) E1670A; K1673A; E1679A; I1683A (protein)
chain: B1 chain with E20A, E29A, I33A
response: 0.41 OD450

B5: PRA, C-terminal domain of MYH9 (recombinant, wild type) E1670A (protein)
chain: B1 chain with E20A, A23K
response: 0.46 OD450
